Changes are numbered by the printed parent chain.
What was measured:
Assay in all cases: solid-phase assay, coated CR protein, anti-RAP, OD450
LRP1 CR3-5 = target: T1, LRP1 CR3-5 (human)
T1 construct: range 852-973; Amplified from human cDNA; also called L1 CR3-5
Protocol: (§1) Solid phase binding assays-Purified, refolded CR protein (1 μg) was bound to Nunc Maxisorp™ 96-well plates in TBS pH 8 supplemented with 5 mM CaCl₂ (TBSC) overnight at 4° C. Wells were washed with TBSC and then blocked with TBSC containing 2% bovine serum albumin (BSA). RAP ligands were then incubated with the immobilized receptor at a range of concentrations for 2 hours in the above blocking buffer supplemented with 0.05% Tween-20 at room temperature. Control wells contained no added ligand. As an additional control, to determine whether the absence of calcium affected binding, 10 mM EGTA was included in the incubation medium for some samples. Wells were washed with TBSTC and bound ligands detected with polyclonal anti-RAP (BP41/42, 1:1,000, BioMarin). Excess primary antibody was removed and wells washed before incubation with the secondary antibody, HRP-conjugated goat anti rabbit IgG (Bio-Rad). After washing, TMB substrate solutions (Bio-Rad) were added to detect HRP. Color development was stopped with 1N HCl. Absorption at 450 nm was measured with a microplate spectrophotometer (Molecular Devices). Data were plotted and Kd values derived by non-linear regression with the assumption of single-site binding (GraphPad Prism).
(§2) Additional assays were performed to assess the binding of wild-type RAP d3 (SEQ ID NO: 92) to each CR pair or set of overlapping pairs was then measured by solid-phase assay (FIG. 5B). Diluted samples were incubated with each test protein, immobilized in multiwell plates. Binding assays were performed as described in Methods. Two independent experiments were performed with triplicate wells for each sample. Means and standard deviations were calculated from the combined values from both experiments and plotted against ligand concentration. Curves were fitted using non-linear regression with a single-site binding model (GraphPad Prism). Kd values with standard deviations were derived from the fitted curves. In all cases, 10 mM EGTA removed >85% of the mean binding signal at the highest concentration of ligand tested.

VLDLR CR6-8 = target: T2, VLDLR CR6-8 (human, UniProt P98155 235-358)
T2 construct: range 235-358; also called V CR6-8; not shown: N-terminal hexahistidine and S-peptide from pET30(+)a
Protocol: as §1, §2

LRP2 CR89 [1] = target: T3, LRP2 CR89 (human, UniProt P98164 1025-1102)
T3 construct: domain: CR8 and CR9; also called YVWR; L2 CR89; not shown: N-terminal hexahistidine and S-peptide from pET30(+)a
Protocol: as §1, §2

LRP2 CR89 V1047D = target: T4, LRP2 CR89 V1047D (human, UniProt P98164 1022-1105)
T4 construct: also called YDWR
T4 chain: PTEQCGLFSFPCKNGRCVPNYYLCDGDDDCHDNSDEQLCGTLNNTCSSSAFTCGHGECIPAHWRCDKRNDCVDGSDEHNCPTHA
Protocol: as §1
(§3) One premise of this work was that amino acids at A, C, A′ and C′ within the calcium-binding loops of a CR pair were key determinants of binding affinity for RAP and would be similarly important for binding of RAP variants. To test this idea, we prepared mutants of LRP2 CR89 in which the native, non-canonical residues at these positions were sequentially substituted with the non-native, canonical residues. As defined above, the A, C, A′, C′ string for LRP2 CR89 is YVWR. Mutants included LRP2 CR89 Y1042W (WVWR), LRP2 CR89 V1047D (YDWR), LRP2 CR89 R1088D (YVWD), LRP2 CR89 V1047D R1088D (YDWD), LRP2 CR89 Y1042W V1047D R1088D (WDWD), LRP2 CR89 Y1042W V1047D (WDWR), LRP2 CR89 Y1042W R1088D (WVWD). Binding to both RAP d3 and RAPv2A d3 were measured for each LRP2 CR89 mutant by solid-phase assay. Samples were tested in triplicate. OD values from uncoated wells, receptor-coated wells incubated with buffer alone, and uncoated wells incubated with the highest ligand concentration all gave similar values for all conditions tested.

LRP2 CR89 R1088D = target: T5, LRP2 CR89 R1088D (human, UniProt P98164 1022-1105)
T5 construct: also called YVWD
Protocol: as §1, §3

LRP2 CR89 Y1042W R1088D = target: T6, LRP2 CR89 Y1042W R1088D (human, UniProt P98164 1022-1105)
T6 construct: also called WVWD
T6 chain: T4 chain with Y22W, D27V, R68D
Protocol: as §1, §3

[2] = target: T7, LRP2 CR89 Y1042W V1047D R1088D (human, UniProt P98164 1022-1105)
T7 construct: also called WDWD
T7 chain: T4 chain with Y22W, R68D
Protocol: as §1, §3

LRP2 CR89 [3] = target: T3, LRP2 CR89; remark: listed apart in the source
Protocol: as §1, §3

LRP2 CR89 Y1042W = target: T8, LRP2 CR89 Y1042W (human, UniProt P98164 1022-1105)
T8 construct: also called WVWR
T8 chain: T4 chain with Y22W, D27V
Protocol: as §1, §3

LRP2 CR89 V1047D R1088D = target: T9, LRP2 CR89 V1047D R1088D (human, UniProt P98164 1022-1105)
T9 construct: also called YDWD
T9 chain: T4 chain with R68D
Protocol: as §1, §3

T3 sequence (P98164 1025-1102): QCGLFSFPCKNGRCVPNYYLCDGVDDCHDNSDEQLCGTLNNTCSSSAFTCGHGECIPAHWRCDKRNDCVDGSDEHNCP
T1 sequence (Q07954 852-973): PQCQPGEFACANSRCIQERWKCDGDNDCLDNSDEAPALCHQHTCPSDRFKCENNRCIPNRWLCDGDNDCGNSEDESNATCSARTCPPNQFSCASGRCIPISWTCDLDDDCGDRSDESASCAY

Kd (LRP1 CR3-5): 11 nM
Kd (VLDLR CR6-8): > 300 nM
Kd (LRP2 CR89 [1]): > 300 nM
% max bind (LRP2 CR89 V1047D): 6%
% max bind (LRP2 CR89 R1088D): 7%
% max bind (LRP2 CR89 Y1042W R1088D): 16%
% max bind [2]: 15%
% max bind (LRP2 CR89 [3]): 7%
% max bind (LRP2 CR89 Y1042W): 9%
% max bind (LRP2 CR89 V1047D R1088D): 6%
B1: wild-type RAP d3 (ligand)
chain: LDRLRRVSHQGYSTEAEFEEPRVIDLWDLEQSANLTDKELEAFREELKHFEAKIEKHNHYQKQLEIAHEKLRHAESVGDGERVSRSREKHALLEGRTKELGYTVKKHLQDLSGRISRAR
notes: expressed in E. coli from pET30(+)a; not shown: vector-encoded N-terminal tags of pET30(+)a (hexahistidine and S-peptide, as stated for the CR constructs)

Reference: patent publication US20090269346A1 (RAPTOR PHARMACEUTICAL, published 2009)
